Data taken from the supplement of paper PMC10567573.

B1: MNAT1 (parent)
chain: SLREYNDFLEEVEEIVFNLTNNVD
B2: SPOPL (parent)
chain: AKREETKAMESQRAYRFVQGKDWG

Variants of: B1
Assay: protein stability index of a GFP-peptide fusion (GPS, HEK-293T) (PSI 1-6); higher = more stable
Conditions: c terminus: a fixed tail appended
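Note: lentivirally expressed fusions sorted by FACS into six bins by GFP to DsRed ratio, PSI derived from sequencing read proportions per bin multiplied by bin number.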

| Variant | protein stability index |
| --- | --- |
| R3E | 2.12 |
| R3Y | 1.86 |
| R3P | 3.52 |
| R3G | 2.78 |
| R3Q | 2.94 |
| R3W | 1.62 |
| R3D | 2.32 |
| R3M | 1.91 |
| R3K | 2.06 |
| R3C | 1.77 |
| R3N | 2.18 |
| R3T | 1.83 |
| R3A | 2.58 |
| R3V | 1.61 |
| R3S | 2.55 |
| R3H | 2.71 |
| R3F | 2.6 |
| R3I | 1.69 |
| R3L | 1.64 |
| F8D | 4.87 |
| F8W | 2.53 |
| F8Q | 4.55 |
| F8I | 2.57 |
| F8M | 3.51 |
| F8L | 3.43 |

| Variant | protein stability index |
| --- | --- |
| F8P | 4.78 |
| F8E | 5.2 |
| F8R | 4.61 |
| F8V | 3.63 |
| F8G | 4.11 |
| F8C | 3.8 |
| F8Y | 3.6 |
| F8N | 4.84 |
| F8A | 3.06 |
| F8H | 4.72 |
| F8S | 4.91 |
| F8T | 4.55 |
| F8K | 4.28 |
| V16L | 1.14 |
| V16Y | 2.63 |
| V16G | 3.86 |
| V16A | 3.36 |
| V16H | 3.86 |
| V16D | 4.87 |
| V16E | 4.36 |
| V16K | 2.84 |
| V16T | 3.21 |
| V16Q | 3.99 |
| V16S | 4.58 |
| V16C | 3 |

| Variant | protein stability index |
| --- | --- |
| V16R | 3.04 |
| V16F | 1.75 |
| V16P | 4.18 |
| V16I | 2.46 |
| V16W | 2.83 |
| V16N | 4.53 |
| V16M | 2.51 |
| D7G | 1.75 |
| D7A | 2.43 |
| D7Q | 1.83 |
| D7Y | 1.79 |
| D7M | 2.27 |
| D7E | 1.91 |
| D7F | 2.32 |
| D7T | 1.47 |
| D7W | 1.96 |
| D7C | 2.27 |
| D7P | 3 |
| D7V | 2.16 |
| D7N | 2.49 |
| D7K | 1.58 |
| D7S | 2.05 |
| D7R | 1.63 |
| D7L | 1.94 |
| D7H | 1.31 |

| Variant | protein stability index |
| --- | --- |
| L9H | 4.22 |
| L9V | 3.77 |
| L9S | 4.82 |
| L9T | 4.07 |
| L9A | 4.09 |
| L9Y | 3.59 |
| L9D | 4.5 |
| L9P | 4.61 |
| L9R | 3.83 |
| L9N | 4.6 |
| L9M | 2.76 |
| L9W | 1.79 |
| L9F | 3.05 |
| L9K | 3.98 |
| L9E | 4.32 |
| L9G | 3.98 |
| L9I | 2.26 |
| L9C | 3.36 |
| L9Q | 4.07 |
| N6M | 1.76 |
| N6V | 1.68 |
| N6I | 2.63 |
| N6Y | 1.87 |
| N6R | 2.23 |
| N6E | 1.76 |

| Variant | protein stability index |
| --- | --- |
| N6D | 2.4 |
| N6T | 2.27 |
| N6W | 2.38 |
| N6H | 1.8 |
| N6K | 3.15 |
| N6F | 2.77 |
| N6G | 3.17 |
| N6P | 3.08 |
| N6Q | 1.75 |
| N6C | 1.78 |
| N6S | 3.31 |
| N6A | 2.82 |
| E14R | 2.15 |
| E14M | 2.22 |
| E14W | 1.75 |
| E14Q | 2.46 |
| E14C | 2.24 |
| E14H | 2.19 |
| E14A | 1.82 |
| E14F | 2.82 |
| E14K | 1.87 |
| E14G | 2.34 |
| E14P | 3.38 |
| E14D | 2.88 |
| E14V | 1.61 |

| Variant | protein stability index |
| --- | --- |
| E14L | 2.12 |
| E14T | 1.87 |
| E14N | 2.11 |
| E14Y | 2.6 |
| E14S | 2.26 |
| F17A | 2.46 |
| L2D | 3.33 |
| L2G | 3.08 |
| L2A | 2.58 |
| L2K | 2.6 |
| L2H | 3.09 |
| L2Y | 2.36 |
| L2E | 3.35 |
| L2S | 2.71 |
| L2M | 2.13 |
| L2I | 2.31 |
| L2N | 2.86 |
| L2W | 1.79 |
| L2T | 3.01 |
| L2C | 2.67 |
| L2R | 3.65 |
| L2Q | 2.72 |
| L2P | 3.72 |
| L2V | 2.33 |
| L2F | 1.96 |

| Variant | protein stability index |
| --- | --- |
| S1L | 1.87 |
| S1D | 2.62 |
| S1V | 2.1 |
| S1N | 3.35 |
| S1I | 2.23 |
| S1R | 2.21 |
| S1W | 2.11 |
| S1E | 2.03 |
| S1K | 1.94 |
| S1F | 2.67 |
| S1T | 1.85 |
| S1Q | 2.81 |
| S1A | 2.1 |
| S1Y | 1.69 |
| S1M | 1.82 |
| S1C | 1.72 |
| S1H | 2.24 |
| S1P | 3.1 |
| E13H | 2.15 |
| E13Q | 1.93 |
| E13Y | 1.63 |
| E13L | 2.5 |
| E13M | 2.94 |
| E13K | 2.69 |
| E13C | 2.34 |

| Variant | protein stability index |
| --- | --- |
| E13I | 2.58 |
| E13G | 2.43 |
| E13D | 2.87 |
| E13N | 2.37 |
| E13R | 1.87 |
| E13F | 2.27 |
| E13W | 2.52 |
| E13V | 2.87 |
| E13P | 3.69 |
| E13S | 1.74 |
| E13T | 1.58 |
| E13A | 1.77 |
| E4G | 2.39 |
| E4S | 2.31 |
| E4Y | 1.39 |
| E4F | 2.34 |
| E4I | 1.69 |
| E4M | 2.26 |
| E4K | 2.75 |
| E4Q | 2.27 |
| E4T | 1.72 |
| E4A | 1.88 |
| E4D | 2.19 |
| E4H | 2.66 |
| E4W | 1.8 |

| Variant | protein stability index |
| --- | --- |
| E4N | 2.04 |
| E4V | 2.08 |
| E4P | 2.98 |
| E4L | 2.5 |
| E4C | 1.95 |
| E4R | 1.85 |
| I15H | 3.9 |
| I15P | 4.71 |
| I15R | 3.84 |
| I15Y | 3.35 |
| I15W | 2.16 |
| I15E | 4.66 |
| I15Q | 3.87 |
| I15C | 3.63 |
| I15S | 3.89 |
| I15V | 3.31 |
| I15M | 2.51 |
| I15G | 4.71 |
| I15D | 4.82 |
| I15L | 1.9 |
| I15T | 3.77 |
| I15N | 4.25 |
| I15A | 3.78 |
| I15F | 2.23 |
| I15K | 4.08 |

| Variant | protein stability index |
| --- | --- |
| E11P | 3.1 |
| E11I | 1.89 |
| E11G | 2.13 |
| E11R | 2.17 |
| E11M | 1.87 |
| E11Y | 2.23 |
| E11D | 2.51 |
| E11C | 2.33 |
| E11W | 2.46 |
| E11K | 2.07 |
| E11N | 1.68 |
| E11T | 1.97 |
| E11S | 1.73 |
| E11A | 1.86 |
| E11H | 2.07 |
| E11Q | 1.72 |
| E11F | 1.49 |
| V12K | 4.72 |
| V12E | 4.49 |
| V12L | 1.09 |
| V12D | 4.97 |
| V12R | 4.19 |
| V12S | 4.5 |
| V12C | 2.9 |
| V12P | 3.91 |

| Variant | protein stability index |
| --- | --- |
| V12G | 4.16 |
| V12T | 3.48 |
| V12Q | 4.08 |
| V12N | 4.83 |
| V12H | 3.48 |
| V12M | 1.74 |
| V12F | 1.86 |
| V12I | 2.13 |
| V12W | 1.87 |
| V12Y | 3.04 |
| V12A | 3.22 |
| Y5V | 2.05 |
| Y5I | 2.61 |
| Y5M | 1.73 |
| Y5R | 4.19 |
| Y5F | 1.58 |
| Y5A | 3.78 |
| Y5Q | 4.19 |
| Y5G | 3.91 |
| Y5W | 2.56 |
| Y5T | 4.08 |
| Y5H | 3.81 |
| Y5E | 4.35 |
| Y5C | 3.11 |
| Y5P | 3.81 |

| Variant | protein stability index |
| --- | --- |
| Y5L | 2.16 |
| Y5D | 2.23 |
| Y5N | 4.14 |
| Y5K | 4.55 |
| Y5S | 4.29 |
| E10Q | 2.62 |
| E10K | 1.91 |
| E10Y | 2.15 |
| E10N | 1.55 |
| E10S | 2.41 |
| E10I | 1.3 |
| E10V | 2.25 |
| E10C | 2.74 |
| E10P | 3.54 |
| E10G | 2.72 |
| E10L | 1.52 |
| E10T | 2.01 |
| E10M | 1.4 |
| E10D | 1.95 |
| E10R | 1.86 |
| E10A | 1.58 |
| E10F | 2.97 |
| E10W | 1.95 |

Variants of: B2
Assay: as above
Conditions: c terminus: a fixed tail appended

| Variant | protein stability index |
| --- | --- |
| W23F | 3.53 |
| W23G | 4.88 |
| W23V | 4.72 |
| W23H | 4.77 |
| W23Q | 4.8 |
| W23M | 4.86 |
| W23P | 4.79 |
| W23L | 4.21 |
| W23Y | 4.05 |
| W23T | 4.86 |
| W23D | 4.4 |
| W23E | 5.14 |
| W23I | 4.18 |
| W23R | 4.49 |
| W23K | 4.87 |
| W23S | 4.91 |
| W23N | 3.65 |
| G24I | 3 |

| Variant | protein stability index |
| --- | --- |
| G24R | 3.73 |
| G24A | 3.44 |
| G24M | 2.54 |
| G24D | 4.16 |
| G24C | 2.18 |
| G24T | 2.96 |
| G24V | 2.91 |
| G24P | 2.45 |
| G24N | 3.63 |
| G24E | 3.24 |
| G24H | 3.39 |
| G24Q | 4.07 |
| G24W | 2.27 |
| G24K | 4.32 |
| G24S | 3.49 |
| G24L | 2.64 |
| G24F | 1.81 |
| G24Y | 2.41 |
